# Paper PMC4641155 (Molecular Imaging and Biology, 2015)
# Where “and” joins values, the source holds several entries; their conditions need not be identical. Identical values can stand only once.
# What was measured:
# [1] = Human residence time estimates scaled from mouse μSPECT time-activity curves; format: in vivo, human (extrapolated from mouse); conditions: scaled from mouse μSPECT TACs, n = 3 non-purified, n = 6 purified
# Source text: (§1) Volumes of interest (VOIs) were manually drawn on the μSPECT-CT images using PMOD v3.3 (PMOD Technologies, Switzerland) to delineate the regions with distinct SPECT time-activity pattern: heart, liver, kidney, and urinary bladder, as well as whole-body. The average organ activity per volume was obtained from the co-registered μSPECT images and the non-decay corrected time activity curves (TACs) were extracted for each target organ. In order to relate the scanner units (counts/pixel) to radioactivity concentration (kilobecquerel per cubic centimeter), a scanner calibration factor was estimated by scanning a syringe with a known concentration of Tc-99m. TACs for each organ, as well as the TACs representing the activity in the remainder of the body, were fitted by a single exponential decaying function, which was then integrated to obtain the total number of disintegrations (residence time) within these regions. In order to predict human dosimetry using animal data, interspecies extrapolation is necessary. Thus, the residence times (R) were scaled to human values according to the following formula [21]: R/gorganmouse⋅kgTBweightmouse⋅gorgan/kgTBweighthuman=Rhuman
# (§2) The human organ and body weight values from the standard adult male phantom taken into account are implemented in the internal dosimetry software (OLINDA/EXM v1.1) and are assumed to be constant across individuals. The body weight and organ masses for the individual mice were obtained post-mortem. For the bladder model, the fraction leaving the body via the urinary excretion system (f) and the biological half-life of the excretion (t1/2) were estimated by fitting a first-order linear system to the sum of activity in the bladder and the activity that had been excreted (calculated as total injected activity minus total body activity): y=f1−expln2/t1/2t
# [2] = Projected human organ absorbed doses and effective dose (OLINDA/EXM); format: in vivo, human (extrapolated from mouse); conditions: OLINDA/EXM v1.1, adult male model, 2-h voiding, from mouse data
# Source text: as §1, §2
# Projected human absorbed doses to various organs and the effective doses (ED) were then computed using the aforementioned dosimetry software (weighting factors from International Commission on Radiological Protection 60), with the human residence times as input, using the standard adult male model and the dynamic voiding bladder model (2-h voiding interval).
# [3] = Bladder model fit of urinary excretion; format: in vivo, CD1−/− nude female mice; conditions: first-order fit of bladder plus excreted activity
# Source text: as §2
# COLO205 tumors [4] = test: In vivo tumor uptake by μSPECT-CT in COLO205 tumor-bearing mice; set-up: species or system nude mice; conditions: for mean tumor uptake: μSPECT 4 h p.i., 37 MBq i.v., mean ± SEM, n = 6 tumors
# Description: (§3) Irinotecan was administered by intra-peritoneal (i.p.) injection (80 mg/kg) three times in 1 week every other day (n = 3).
# COLO205 tumors [5] = test: Ex vivo tumor uptake by γ-counting in COLO205 tumor-bearing mice; set-up: species or system nude mice; conditions: mean ± SEM
# Description: as §3
# [6] = In vivo plasma metabolite analysis by radio-HPLC; set-up: species or system CD1−/− nude mice; conditions: mouse plasma 4 and 24 h p.i., 37 MBq purified tracer i.v., acetonitrile deproteination, radio-RP-HPLC with γ-counted fractions; n = 3 per time point
# Description: In vivo metabolite analysis
# Four and 24 h p.i. (n=3 for each […]
# time point) mixed blood was drawn by cardiac puncture, and the mice were euthanized by cervical dislocation. The blood was collected in EDTA-coated tubes and the plasma fraction was obtained by centrifugation (4000 g for 7 min). The plasma (200 µl) was mixed with an equal amount of cold acetonitrile to enable sample deproteination and counted for radioactivity using an automatic γ-counter. After vortexing and centrifuging for 4 min at 4000 g, the supernatant was separated from the pellet and both fractions were γ-counted to calculate the amount of radioactivity extracted in acetonitrile. To study radiometabolite formation, 100 µl of the supernatant were analyzed by RP-HPLC using the method described before. Eluate fractions of 0.5 min were collected and counted for radioactivity in the γ-counter.
# Adult normal CD1-/- nude mice were used to examine the metabolic stability of […]
# According to the radio-HPLC analysis of the plasma samples, the majority of the injected radiotracer remains unchanged after 4 and 24 h p.i. (Figs. 1b and c, respectively).
# One minor polar impurity was detected eluting at 3 min. As it was also visible in the reference […]
# Radiometabolites eluting with a longer retention time (18.5 – 30 min) could also be detected.
compound,measurement,setting,value
CC(C)[C@@H]1NC(=O)[C@H](Cc2ccccc2)NC(=O)[C@@H]2NC(=O)[C@H](Cc3ccccc3)NC(=O)[C@@H]3CCCN3C(=O)CNC(=O)[C@H](Cc3ccccc3)NC(=O)[C@@H]3CNCCCC[C@@H](C(=O)O)NC(=O)[C@@H]4NC(=O)[C@H](CC(N)=O)NC(=O)CNC(=O)[C@H]([C@@H](O)C(=O)O)NC(=O)[C@H](CSC[C@@H](NC(=O)[C@H](CCC(N)=O)NC(=O)[C@H](CCCCNC(=O)c5ccc(NN)nc5)NC(=O)[C@@H](N)CS[C@H]4C)C(=O)N[C@@H](CS[C@H]2C)C(=O)N3)NC1=O [purified [^99mTc]duramycin] [metal not drawn],"Mean human residence time, heart contents",[1],0.027 h
same,"Mean human residence time, kidneys",[1],0.0549 h
same,"Mean human residence time, liver",[1],0.075 h
same,"Mean human residence time, remaining body",[1],2.54 h
same,"Mean human residence time, urinary bladder contents",[1],6.43 × 10 ^−1 h
same,"Mean human absorbed dose, total body",[2],1.62 × 10^−3 mGy/MBq
same,"Mean human organ absorbed dose, LLI wall",[2],2.97 × 10^−3 mGy/MBq
same,"Mean human organ absorbed dose, ULI wall",[2],2.03 × 10^−3 mGy/MBq
same,"Mean human organ absorbed dose, adrenals",[2],1.74 × 10^−3 mGy/MBq
same,"Mean human organ absorbed dose, brain",[2],1.14 × 10^−3 mGy/MBq
same,"Mean human organ absorbed dose, breasts",[2],9.59 × 10^−4 mGy/MBq
same,"Mean human organ absorbed dose, gallbladder wall",[2],1.84 × 10^−3 mGy/MBq
same,"Mean human organ absorbed dose, heart wall",[2],1.91 × 10^−3 mGy/MBq
same,"Mean human organ absorbed dose, kidneys",[2],3.63 × 10^−3 mGy/MBq
same,"Mean human organ absorbed dose, liver",[2],1.64 × 10^−3 mGy/MBq
same,"Mean human organ absorbed dose, lungs",[2],1.36 × 10^−3 mGy/MBq
same,"Mean human organ absorbed dose, muscle",[2],1.55 × 10^−3 mGy/MBq
same,"Mean human organ absorbed dose, osteogenic cells",[2],3.92 × 10^−3 mGy/MBq
same,"Mean human organ absorbed dose, ovaries",[2],2.96 × 10^−3 mGy/MBq
same,"Mean human organ absorbed dose, pancreas",[2],1.82 × 10^−3 mGy/MBq
same,"Mean human organ absorbed dose, red marrow",[2],1.48 × 10^−3 mGy/MBq
same,"Mean human organ absorbed dose, skin",[2],9.56 × 10^−4 mGy/MBq
same,"Mean human organ absorbed dose, small intestine",[2],2.22 × 10^−3 mGy/MBq
same,"Mean human organ absorbed dose, spleen",[2],1.59 × 10^−3 mGy/MBq
same,"Mean human organ absorbed dose, stomach wall",[2],1.59 × 10^−3 mGy/MBq
same,"Mean human organ absorbed dose, testes",[2],2.07 × 10^−3 mGy/MBq
same,"Mean human organ absorbed dose, thymus",[2],1.39 × 10^−3 mGy/MBq
same,"Mean human organ absorbed dose, thyroid",[2],1.38 × 10^−3 mGy/MBq
same,"Mean human organ absorbed dose, urinary bladder wall",[2],2.70 × 10^−2 ± 3.05 × 10^−3 mGy/MBq and 2.70 × 10 ^−2 mGy/MBq
same,"Mean human organ absorbed dose, uterus",[2],4.57 × 10^−3 ± 3.42 × 10^−4 mGy/MBq and 4.57 × 10 ^−3 mGy/MBq
same,"f, mean fraction leaving the body via the urinary excretion system",[3],0.697
same,"t 1/2, mean biological half-life of the excretion",[3],2.151 h
same,"tumor-to-blood uptake ratio, irinotecan-treated over vehicle-treated mice",COLO205 tumors [4]; 4 h p.i.,6 fold
same,"tumor-to-muscle uptake ratio, irinotecan-treated over vehicle-treated mice",COLO205 tumors [4]; 4 h p.i.,2 fold
same,mean tumor uptake,"COLO205 tumors [4]; irinotecan-treated group, 24 h after last dose",148.50 ± 25.42 %I.D./g/kg
same,mean tumor uptake,COLO205 tumors [4]; vehicle-treated group,40.58 ± 2.81 %I.D./g/kg
same,tumor uptake by γ-counting,COLO205 tumors [5]; control (vehicle) tumors,0.74 ± 0.04 %I.D./g
same,tumor uptake by γ-counting,COLO205 tumors [5]; irinotecan-treated tumors,1.65 ± 0.13 %I.D./g
same,in vivo plasma (metabolic) stability,[6],unchanged
